According to the supplement of paper PMC9170038:

System: K4 kissing-loop RNA reporter
Assay: apparent KD of K4 kissing-loop reporter; higher = weaker reporter binding
Conditions: Eterna round: R107; input ligand: none
Experimental: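 RNA-MaP round R107: designed RNA switches with theophylline, tryptophan, arginine or FMN aptamers are transcribed on-chip within common flanks. They are titrated with a labelled K4 kissing-loop RNA reporter in RNA-MaP buffer (100 mM Tris pH 7.5, 80 mM KCl, 4 mM MgCl2), without ligand or with the indicated ligand. Median apparent KD per design.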
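Note: bound reporter read as fluorescence of individual clusters on recovered sequencing chips by microscopy, with normalized cluster intensities fitted with a binding model.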

Point of comparison: “UGUACCGAGUCAGGAUAUGGUAUACCGGAAACGGACCAGUGAUGUUGGAGGCGAAAGCCAUAAAAUCCAGAAGGGACUUGGUACU [FmnBS 19 #SwitchBubble #StaticStem #DoubleMagnetSystem]”, “apparent KD of K4 kissing-loop reporter” value 614 nM. Against it:
- GCAAAGUGUCAUAUUAUCUAGCAGCUGCGAAAGGAUAUGAGAGUGCUCAGAAGGUUCUUGGCGGAGUGAUGUUCCGCGUAAAUGG [theeternabot_exclusion_KL_FMN_A_22] — 6.5-fold lower, 93.9 nM
- GGAUUUGAAAGUGAGUGAUGUUCAUGUUGUGAGGAUAUGUAGAGAUAUAGAAGGCACGUUUGUAUUUUUUUUGUGUGAGAUUAAA [Last Minute #1] — 9.4-fold lower, 65.1 nM
- UUUUUGGAGAAUUAUAGUGAUGUUAUGAAGGAGGAUAUCUAAAGAUGGAGAAGGUUUAAUAGUUAAGGGAUGGAGGGUGGGUGGG [ExFMNA.Q] — 1.9-fold lower, 320 nM
- AAGUUUUAUAAACUCAUGGUUUCGACAGAUACCAGCUUCGAGAGGAGCCCUUGGCAGCUGCAUGAGUGAUGUUCAUGUACGAAGA [KL-XTheoA8] — within 1.5-fold, 480 nM
- AGGUUUUGAUUAGGAUAUGCACUGAGGAGGAGAAUAUAGUGAUGUUAUAUAAGAGGAAGUAGUAGAGUAGAAGGGAUUGAGGUUU [SSFMNB.S] — 2.7-fold lower, 224 nM
- CGUUUAUAGCAGGAUACCAGUACCCAUAAAGUACGUUAAUAGUAGAGUGAUGUUCUAAAGUACCCUUGGCAGCUUCCCGUGACUG [ExTheophylB.U] — 7.7-fold lower, 79.5 nM
- AGGGAUGUUAAAGGAUAUAGAAAGUGAUGUUAGAAAGUGAGUGAUGUUGAUGUAAGUGAUGAUAUGUUAGAAGGUUAACAAAACG [abc] — 3.2-fold lower, 192 nM
- CGCGCCCGGCCGGAUACCAGUGACCCGCUGGGAACCGCGGGCCCAGAGUGAUGUUCGGGACACCCUUGGCAGCCGCCUGGGCGUG [#2 Same State - Theophylline B Attempt #5 (HarryS)] — within 1.5-fold, 841 nM
- GGAGUCCCGUUAGAUUGUGUAGAUACAAGACGAGGACCGGUACGGCCGCCACUCGCCAUCGUCCAGUGAUGUUGGGCGUCACGGG [theeternabot_sameState_KL_Trp_A_30] — 2.6-fold lower, 235 nM
- GCCGUACGCAUGGAUACCAGCACAGGCCGAAGUGAUGUUUCGUGCGUAUAUUUGUGCUACUGCCCUUGGCAGCCAUGCGUACGGC — 8.3-fold lower, 73.9 nM
- CCGAUACAUUAUUCUACGGCCGAGAGUGAUACCAGCCAUAUUUAUGGCCCUUGGCAGCGCAGAUGCAGUGAUGUUGCAUACUUAC [Same State Theophylline A GF 19] — 6.7-fold lower, 91.5 nM
- GGUCGAGUGAUGUUCGAUGUUAUGCAUUCAGAGGAUAUAGGAUUAGCUAGAAGGCUGAAUCAAUCUUCGAGUGAUGUUCGAGGAU [Same State FMN A GF 9] — 5.3-fold lower, 115 nM
- AACUUAAUUUAUAAGCAGUGAUGUUGCUCACGAGGACCGGUACGGCCGCCACUCGAUCGGACUUAGGUCUUCAAUUAUUUCAUUA [JR_ExcTryptoA_Sub017] — 3.8-fold lower, 163 nM
- GAUUGAGUGAUGUUCAAUUAGUAUCUAGAUACCAGAAUGUCUACCUUCCCUUGGCAGCUACUGACGGUGAUCAUUUCGCGCGCAG [theeternabot_sameState_KL_Theo_A_19] — 2.5-fold lower, 244 nM
- GGAUCCACCAGUGAUGUUGGAGAAAACUCCAAGGAUAUGACGAAAGUCAGAAGGUGGUAGACUGGACAAAGUCCGGUGGGAUCCA [FmnA10 G78] — 1.6-fold lower, 392 nM
- UUUUUAUAAGAGGAUACCAGUACAAAUAAAGUACAUUAAUAGUAGAGUGAUGUUCUAAAGUACCCUUGGCAGCUUAGAGUAAGUU [ExTheophylB.C] — 3.5-fold lower, 174 nM
- UUCGAUCAGUGAUGUUGAUCAAUAGUCGAAGGAGCGCUAUAGAUAGCAGGUAGGUCGCGACUACAAGGUGUUAAGACACCUCGAA [Arg A SS t9] — within 1.5-fold, 525 nM
- GUAUUGUGAAUGGAUACCAGACACCCGAGUGAUGUUCGGAGCAGAGUGAUGUUCUAAUAAGUCCCUUGGCAGCCGGAAGCAGCCG [Same State Theophylline B GF 3] — 1.8-fold lower, 340 nM
- AGUUCUUGCCGAAGGAGCGAGGCAGAGUGAUGUUCUGCAGAGGUCGAAAGACCUCAACUGCCUCAGGUAGGUCGCGGCAUGAACA [Omei KL Arginine B Exc A v6] — within 1.5-fold, 563 nM
- CUGCAACAUAACUUCUUCGUCCUAGAAGACUAGGAUAUCAGGAAACUGAGAAGGAGUCUCUGCAGUGAUGUUGCAGUUAGGACGA [KL-SSFMN-A7] — 5.3-fold lower, 115 nM

Same assay, conditions: Eterna round: R107; input ligand: theophylline 20 uM

Point of comparison: “UCCGAGCUUAUUGAUACCAGUUCGGCGAGCUACUAGAGUGAUGUUCUUGUAAGCGUACACAACCCUUGGCAGCAAUAGAGGAGGU [theeternabot_sameState_KL_Theo_B_37]”, “apparent KD of K4 kissing-loop reporter” value 130 nM. Against it:
- GGCCCGGGCUCGGCCGCCACUCCCUCGUACCGCAAGGUAUGAUACCGAGUGAUGUUCGGUUGGAGGAGGACCGGGAGCCCGGGCC [#2 Exclusion - Tryptophan B Attempt #6 (HarryS)] — within 1.5-fold, 101 nM
- AAAAUAAAUAGCAGUCACGGAGUGAUGUUCCGAGGACCGGUACGGCCGCCACUCGACCAGACAAAGUCUGGAGGCGGAGACUGCA [#SwitchBubble 20 #K4Early] — within 1.5-fold, 187 nM
- AAUCUCGUCCUGGAUACCAGUCGCACGGUUUGUCAUGUCAGCCAGUGAUGUUGCCUGCAUGACCCUUGGCAGCCAUUCUAUGAAU [theeternabot_exclusion_KL_Theo_B_45] — 2.6-fold higher, 334 nM
- GCAGUGAUGUUGCUGAUGUGCAGUGGUAGUCGAGGACCGGUACGGCCGCCACUCGGUGAGAAUUUGUUAAUACAUCGAUAAGUGA [XVI] — 3.9-fold higher, 509 nM
- UGAUACCAGACUGAUACCAGCAGUGAUGUUGCUGAUAAGGGUAGAGUCAAAGACUCUACCUGCCCUUGGCAGCAGUCUGGUAUCU [TheoBX 14 #SwitchBubble #StaticStem] — within 1.5-fold, 173 nM
- AAAUGACAAGUAAUAAAGAAAAGCGGCGAUACCAGUAAGAACGUAUACCCUUGGCAGCGCAUAUUAGAGUGAUGUUCUAAUCCGA [theeternabot_sameState_KL_Theo_A_25] — 1.7-fold higher, 220 nM
- AAUUUGGGUUCGGCCGCCACUCCAGUGAUGUUGGAUGGCGAAAUAAAGGCUAGACCAGGUUGCCGGAGGACCGGGAAUCCUGUAC [Qumabi] — within 1.5-fold, 139 nM
- UAGUCCUAGUGAUGGUUAUCACGUGGUGGGCGAGGACCGGUACGGCCGCCACUCGACUAUGCAGUGAUGUUGCAAUCCGGACAAU [Exclusion - Tryptophan A (Freestyle 16)] — 2.7-fold higher, 353 nM
- AGGGUAAGGCGUUAACAUGACACCUGGGAAGGAGCGCGGUACACCGCAGGUAGGUCGCCCAGUGAUGUUGGGUGUAAGUAUGAGU [KL-XArg-A23] — within 1.5-fold, 146 nM
- GAGAUAGAGGCGGCCGCCACUAGUGAUGUUAGUGAUGUUAGAUAGAGAAUAGAACAGAGAUAGGAUAGGACCGGGCCAGAUAGAG [Tryptophan B Exclusion; Euphoria Solution] — 2.5-fold lower, 52.1 nM
- AAUAAUCUAGGUGAUACCAGCUCAACAUGAGUGAUGUUCGUGAGCUAAUGUAGAGUUGAGAGCCCUUGGCAGCACCUAGAUAAUA [KL-SSTheoB7] — 8.8-fold higher, 1140 nM
- CACCAUGAAUUCUCUAGGAGUGAUGUUUUUCGAGGACCGGUACGGCCGCCACUCGGACGAGGACCGUGGGAGCGGCGAAGCGGCU [?oegmullin] — within 1.5-fold, 169 nM
- UCCUAGACUUAGCUAGGUAUAUAAUACGAUACCAGUCUAGAGAUAGACCCUUGGCAGCGUAGGCAGUGAUGUUGCCACUAGCUGA [Theo B SS t7a] — within 1.5-fold, 111 nM
- GCCCUCUUAACGGCCGCCACUAUAUUUAUGAUCUCUAGUAAGUGAUGUUUACUCCGGCUUAUAGGUAGGACCGGGUUAUUAUCUU [theeternabot_sameState_KL_Trp_B_39] — 2.3-fold higher, 302 nM
- UAAUGGUAAGUGAUGUUUACCUGGAACGAUACCAGUCGCCAUGAGGACCCUUGGCAGCGUCACACAGCCUUCUAGUUGUGGUCUU [theeternabot_sameState_KL_Theo_A_46] — 3.8-fold higher, 499 nM
- UAUAUAGUGACGGCCGCCACUAUAUUAAUGUUUUUGUUAGAGUGAUGUUUUGUUUUUUAAUUUUAUAGGACCGGGUUAUAUGUUA [xnxmullin] — 2.6-fold higher, 335 nM
- ACGUGUCACUGAAGGAGCGUCUACCGAAUACGAGUGAUGUUCGUACACCACUGAUAUAGUGGACAGGUAGGUCGCAGUGAUACGU [Arg B Ex t3] — within 1.5-fold, 102 nM
- CCUCUCCUUGAUAGUGAUGUUAUCAAGGACAAGGAUAUCAUCUCAAUGAGAAGGUGUCCUUGAUAACAUGGAGGUCUGAAACAGA [Omei KL FMN A Exc C v1] — within 1.5-fold, 125 nM
- AAACAUCACUGGGAGUGAUGUUCUCAGUGACGAGGACCGGUACGGCCGCCACUCGCGAGAGAUAUAGUCAAGUAAUGACUGCAUU [Excl Tryptophan A V9] — 2.9-fold higher, 375 nM
- AAUGUAUACUGAAGGAGCGAGUAGUGGAAACAUAAACUCAAUGCGAGUGAUGUUCGCAGUACUCAGGUAGGUCGCAGUAAUGGUA [Exclusion Arginine B Gf 8] — 3.6-fold higher, 468 nM
- GCAAAGUGUCAUAUUAUCUAGCAGCUGCGAAAGGAUAUGAGAGUGCUCAGAAGGUUCUUGGCGGAGUGAUGUUCCGCGUAAAUGG [theeternabot_exclusion_KL_FMN_A_22] — within 1.5-fold, 103 nM
- GGAUUUGAAAGUGAGUGAUGUUCAUGUUGUGAGGAUAUGUAGAGAUAUAGAAGGCACGUUUGUAUUUUUUUUGUGUGAGAUUAAA [Last Minute #1] — 1.7-fold lower, 75.2 nM
- UGUACCGAGUCAGGAUAUGGUAUACCGGAAACGGACCAGUGAUGUUGGAGGCGAAAGCCAUAAAAUCCAGAAGGGACUUGGUACU [FmnBS 19 #SwitchBubble #StaticStem #DoubleMagnetSystem] — 6.9-fold higher, 893 nM
- UUUUUGGAGAAUUAUAGUGAUGUUAUGAAGGAGGAUAUCUAAAGAUGGAGAAGGUUUAAUAGUUAAGGGAUGGAGGGUGGGUGGG [ExFMNA.Q] — 1.6-fold higher, 208 nM
- AAGUUUUAUAAACUCAUGGUUUCGACAGAUACCAGCUUCGAGAGGAGCCCUUGGCAGCUGCAUGAGUGAUGUUCAUGUACGAAGA [KL-XTheoA8] — 3.2-fold higher, 416 nM
- AGGUUUUGAUUAGGAUAUGCACUGAGGAGGAGAAUAUAGUGAUGUUAUAUAAGAGGAAGUAGUAGAGUAGAAGGGAUUGAGGUUU [SSFMNB.S] — 1.6-fold higher, 210 nM
- CGUUUAUAGCAGGAUACCAGUACCCAUAAAGUACGUUAAUAGUAGAGUGAUGUUCUAAAGUACCCUUGGCAGCUUCCCGUGACUG [ExTheophylB.U] — within 1.5-fold, 99.8 nM
- AGGGAUGUUAAAGGAUAUAGAAAGUGAUGUUAGAAAGUGAGUGAUGUUGAUGUAAGUGAUGAUAUGUUAGAAGGUUAACAAAACG [abc] — within 1.5-fold, 169 nM
- CGCGCCCGGCCGGAUACCAGUGACCCGCUGGGAACCGCGGGCCCAGAGUGAUGUUCGGGACACCCUUGGCAGCCGCCUGGGCGUG [#2 Same State - Theophylline B Attempt #5 (HarryS)] — 5.7-fold higher, 738 nM
- GGAGUCCCGUUAGAUUGUGUAGAUACAAGACGAGGACCGGUACGGCCGCCACUCGCCAUCGUCCAGUGAUGUUGGGCGUCACGGG [theeternabot_sameState_KL_Trp_A_30] — 1.7-fold higher, 227 nM
